Paper PMC9064986 (2022)

B1: BMPRII extracellular domain (ECD), wild type [human] / BMP10 growth factor (GF)-domain from Pro:BMP10 made in HEK EBNA cells [human] (parent complex)
chain 1: SQNQERLCAFKDPYQQDLGIGESRISHENGTILCSKGSTCYGLWEKSKGDINLVKQGCWSHIGDPQECHYEECVVTTTPPSIQNGTYRFCCCSTDLCNVNFTENFPPPDTTPLSPPHSFNRDET
chain 2: NAKGNYCKRTPLYIDFKEIGWDSWIIAPPGYEAYECRGVCNYPLAEHLTPTKHAIIQALVHLKNSQKASKACCVPTKLEPISILYLDKGVVTYKFKYEGMAVSECGCR

Variants of: B1
Test: SPR (Biacore); BMP10 immobilised on a CM5 Biacore chip; parent: 0.161

Variant | koff
chain 1 SQNQERLCAFKDPYQQDLGIGESRISHENGTILCSKGSTCYGLWEKSKGDINLVKQGCWSHIADPQECHYEECVVTTTPPSIQNGTYRFCCCSTDLCNVNFTENFPPPDTTPLSPPHSFNRDET [chain 1 G63A] | 0.331 s⁻¹
chain 1 SQNQERLCAFKDPYQQDLGIGESRISHENGTILCSKGSTCYGLWEKSKGDINLVKQGCWSHIWDPQECHYEECVVTTTPPSIQNGTYRFCCCSTDLCNVNFTENFPPPDTTPLSPPHSFNRDET [chain 1 G63W] | 0.433 s⁻¹
chain 1 SQNQERLCAFKDPYQQDLGIGESRISHENGTILCSKGSTCYGLWEKSKGDINLVKQGCWSHIEDPQECHYEECVVTTTPPSIQNGTYRFCCCSTDLCNVNFTENFPPPDTTPLSPPHSFNRDET [chain 1 G63E] | 0.609 s⁻¹

The remaining lines, values ahead:

koff | Variant
0.147 s⁻¹ | chain 1 SQNQERLCAFKDPYQQDLGIGESRISHENGTILCSKGSTCYGLWEKSKGDINLVKQGCWSHIGDPHECHYEECVVTTTPPSIQNGTYRFCCCSTDLCNVNFTENFPPPDTTPLSPPHSFNRDET [chain 1 Q66H]
0.158 s⁻¹ | chain 1 SQNQERLCAFKDPYQQDLGIGESRISHENGTILCSKGSTCYGLWEKSKGDINLVKQGCWSHIGDPQECHYEKCVVTTTPPSIQNGTYRFCCCSTDLCNVNFTENFPPPDTTPLSPPHSFNRDET [chain 1 E72K]
0.0423 s⁻¹ | chain 1 SQNQERLCAFKDPYQQDLGIGESRISHENGTILCSKGSTCYGLWEKSKGDINLVKQGCWSHIGDPQECHYEECVVTTTPPPIQNGTYRFCCCSTDLCNVNFTENFPPPDTTPLSPPHSFNRDET [chain 1 S81P]

Variants of: B1
Test: SPR (Biacore); BMP10 immobilised on a CM5 Biacore chip; parent: 1.35e+05

Variant | kon
chain 1 SQNQERLCAFKDPYQQDLGIGESRISHENGTILCSKGSTCYGLWEKSKGDINLVKQGCWSHIADPQECHYEECVVTTTPPSIQNGTYRFCCCSTDLCNVNFTENFPPPDTTPLSPPHSFNRDET [chain 1 G63A] | 104000 M⁻¹ s⁻¹
chain 1 SQNQERLCAFKDPYQQDLGIGESRISHENGTILCSKGSTCYGLWEKSKGDINLVKQGCWSHIWDPQECHYEECVVTTTPPSIQNGTYRFCCCSTDLCNVNFTENFPPPDTTPLSPPHSFNRDET [chain 1 G63W] | 1830 M⁻¹ s⁻¹
chain 1 SQNQERLCAFKDPYQQDLGIGESRISHENGTILCSKGSTCYGLWEKSKGDINLVKQGCWSHIEDPQECHYEECVVTTTPPSIQNGTYRFCCCSTDLCNVNFTENFPPPDTTPLSPPHSFNRDET [chain 1 G63E] | 3980 M⁻¹ s⁻¹

Results, then the variant that gave them:

kon | Variant
120000 M⁻¹ s⁻¹ | chain 1 SQNQERLCAFKDPYQQDLGIGESRISHENGTILCSKGSTCYGLWEKSKGDINLVKQGCWSHIGDPHECHYEECVVTTTPPSIQNGTYRFCCCSTDLCNVNFTENFPPPDTTPLSPPHSFNRDET [chain 1 Q66H]
148000 M⁻¹ s⁻¹ | chain 1 SQNQERLCAFKDPYQQDLGIGESRISHENGTILCSKGSTCYGLWEKSKGDINLVKQGCWSHIGDPQECHYEKCVVTTTPPSIQNGTYRFCCCSTDLCNVNFTENFPPPDTTPLSPPHSFNRDET [chain 1 E72K]
129000 M⁻¹ s⁻¹ | chain 1 SQNQERLCAFKDPYQQDLGIGESRISHENGTILCSKGSTCYGLWEKSKGDINLVKQGCWSHIGDPQECHYEECVVTTTPPPIQNGTYRFCCCSTDLCNVNFTENFPPPDTTPLSPPHSFNRDET [chain 1 S81P]

Variants of: B1
Test: SPR (Biacore); BMP10 immobilised on a CM5 Biacore chip; parent: 1.19e+03 nM

Variant | Kd
chain 1 SQNQERLCAFKDPYQQDLGIGESRISHENGTILCSKGSTCYGLWEKSKGDINLVKQGCWSHIADPQECHYEECVVTTTPPSIQNGTYRFCCCSTDLCNVNFTENFPPPDTTPLSPPHSFNRDET [chain 1 G63A] | 3.19 µM
chain 1 SQNQERLCAFKDPYQQDLGIGESRISHENGTILCSKGSTCYGLWEKSKGDINLVKQGCWSHIWDPQECHYEECVVTTTPPSIQNGTYRFCCCSTDLCNVNFTENFPPPDTTPLSPPHSFNRDET [chain 1 G63W] | 237 µM
chain 1 SQNQERLCAFKDPYQQDLGIGESRISHENGTILCSKGSTCYGLWEKSKGDINLVKQGCWSHIEDPQECHYEECVVTTTPPSIQNGTYRFCCCSTDLCNVNFTENFPPPDTTPLSPPHSFNRDET [chain 1 G63E] | 153 µM

Variants with a lower Kd, results first:

Kd | Variant
1.22 µM | chain 1 SQNQERLCAFKDPYQQDLGIGESRISHENGTILCSKGSTCYGLWEKSKGDINLVKQGCWSHIGDPHECHYEECVVTTTPPSIQNGTYRFCCCSTDLCNVNFTENFPPPDTTPLSPPHSFNRDET [chain 1 Q66H]
1.07 µM | chain 1 SQNQERLCAFKDPYQQDLGIGESRISHENGTILCSKGSTCYGLWEKSKGDINLVKQGCWSHIGDPQECHYEKCVVTTTPPSIQNGTYRFCCCSTDLCNVNFTENFPPPDTTPLSPPHSFNRDET [chain 1 E72K]
0.328 µM | chain 1 SQNQERLCAFKDPYQQDLGIGESRISHENGTILCSKGSTCYGLWEKSKGDINLVKQGCWSHIGDPQECHYEECVVTTTPPPIQNGTYRFCCCSTDLCNVNFTENFPPPDTTPLSPPHSFNRDET [chain 1 S81P]
